The target of the assay is RAB21 (UniProt P35282). Nature of the assay: GST pull-down with purified proteins. The settings on record: reference: RPH3A incubated with PKN1 without ATP; sites S234,S271.

As for “RPH3A (Rabphilin 3A) (from UniProt P47708) RPH3A incubated with PKN1 and ATP”, the “binding against the reference” value is “stronger”.

Values taken from article PMC5548392.
